{
  "source": "the RNAGym collection of RNA variant scans (doi:10.1073/pnas.2313332121)",
  "parents": {"B1": {"name": "TPR 5TU (parent)", "chain": "GGAUCUUCUCGAUCUAACAAAAAAGACAAAUCUGCCACAAAGCUUGAGAGCAUCUUCGGAUGCAGAGGCGGCAGCCUUCGGUGGCGCGAUAGCGCCAACGUUCUCAACUAUGACACGCAAAACGCGUGCUCCGUUGAAUGGAGUUUAUCAUG"}},
  "note": "Variants at the floor of the assay were thinned out.",
  "data": [
    {"variants_of": "B1", "experiment": "polymerase ribozyme fitness, log enrichment relative to wild type (log ratio); higher = more active; in vitro selection for triplet polymerase activity", "in_short": "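Each subunit of a heterodimeric triplet polymerase ribozyme was represented by a PCR-built, transcribed mutant library that underwent triplicate single-round in vitro selection with frozen incubation at −7 °C. Extended constructs were recovered by gel excision, streptavidin-bead capture and RT-PCR, and Illumina sequencing of input and output libraries kept genotypes with ≥10 input reads and ≥1 read per output. Fitness is the logarithm of genotype enrichment relative to wild-type enrichment, from inverse-variance-weighted replicate averages, with a logarithm base of 2.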", "values": [
      {"variant": "GGAUCUUCUCGAUCUAACAAAAAAUACAAAUCUGCCACAAGGCUUGAGAGCAGUUUCGGAUGCAGAGGCGGCAGCCUUCGGUGGCGCGAUACCGCCAACGUUCUCAACUAUGACACGCAAAACACGUGCUCCGUUGAAUGGAGUUUAUCACG", "note": "[G25U A41G U53G C54U G92C G124A U151C]", "polymerase ribozyme fitness (log ratio)": "≤ -4.2"},
      {"variant": "GGAUCUUCUCGAUCUAUCAAAAAAGACAAAUCUGCCACACAGCUUGAGAGCAUCUUCCGAUGCAGAGGCGGCAGCUUUCGGUGUCGCGAUAGCGCCAACGUUCUCAACUAUGACACGCAAAACGCGUGCUCCGUUGAAUGGAGGUUAUCAUG", "note": "[A17U A40C G58C C76U G84U U144G]", "polymerase ribozyme fitness (log ratio)": -0.372},
      {"variant": "GGAUCUUCUCGAUCUAACAAAAAAGACGUAUCUGCCACAAAGGUUGCGAGCAUCUUCGGAUGCAGAGGCGGCAGCCUUCGGUGUCGCGAUAGCGCCAACGUUCUCAACUUUGACACGCAAAACGCGUGCUCCGUUGAAUGGAGUUUAUCAUG", "note": "[A28G A29U C43G A47C G84U A110U]", "polymerase ribozyme fitness (log ratio)": "≤ -4.2"},
      {"variant": "GGAUCUUCUCGAUCUAACAAAAAAGACAAAUCUGCCACAAAGCUUGAGAGCAUCUUCGGAUGCAGAGGCGGCAGCCUUCGGUGGAGCGAUAGCGCCAACGUUCUCAACUAUGACACGCAAAACUCGUGCUCCGUUGAAUGGAGUUUAUCAUG", "note": "[C85A G124U]", "polymerase ribozyme fitness (log ratio)": -1.9},
      {"variant": "GGAUCUUCUCGAUCUAACAAAAAAGACAAAUCUGCCACAAAGCUUGAGAGCAUCUUCGCAUGCAGAGGCGGCAGCCUUCGGUGGUGCGAUAGCGCCAACGUUCUCAACUAUGACACGCAAAACGCGUGCUCCGUUGAAUGGAGUUUAUCAUG", "note": "[G59C C85U]", "polymerase ribozyme fitness (log ratio)": -0.507},
      {"variant": "GGAUCUUCUCGAUCUAACAAAAAAGACAAAUCUGCCACAAAGCUUGAGAGCGUCUUCCGAUGCAGAGACGGCAGCAUUCGGUGGUGCGAGAGCGCCAACGUUCUCAACUAUGACACUCAAAACGCGUGCUCCGUUGAAUGGAGUUUAUCAUG", "note": "[A52G G58C G68A C76A C85U U90G G117U]", "polymerase ribozyme fitness (log ratio)": "≤ -4.2"},
      {"variant": "GGAUCUUCUCGAUCUAACAAAAAAUACAAAUCUGCCACAAAGCUUCAGAACAUCUUCGGAUACAGAGGCGGCAGCCUUCGGUGGCGCGAUAGCGCUAACGUUCUCAACUAUGACACGCAAAACGCGUGCUCCGUUGAAUGGAGUUUAUCAUG", "note": "[G25U G46C G50A G62A C96U]", "polymerase ribozyme fitness (log ratio)": "≤ -4.2"},
      {"variant": "GGAUCUUCUCGAUUUAACAAAAAAGACAAAUCUGCCACAAAGCUUGAGAGCAUCUUCGGAUGCAGAGGCGGCAGCCUUCGGUGGCGUGAUAGCGCCAACGUCCUCAACUAUGACACGCAAAACGCGUGCUCCGUUGAAUGGAGUUUAUCAUG", "note": "[C14U C87U U102C]", "polymerase ribozyme fitness (log ratio)": -4.18},
      {"variant": "GGAUCUUCUCGAUCUAACAAAAAAGACAAAUCUGCCCCAUAGCUUGAGAGCAUCUUCGGAUGCAGAGGCGGCAGCCUUCGGUAGCGCGAUAGGGCCAACGUUCUCAACUAUGACACGCAAAACGCGUGCUCCGUUGAAUGGGGUUUAUCAUG", "note": "[A37C A40U G83A C93G A142G]", "polymerase ribozyme fitness (log ratio)": "≤ -4.2"},
      {"variant": "GGAUCUUCUCGAUCUAACAAAAAAGACAGAUCUGCCACAAAGCUUGAGAGCAUCUUCGGAUGCAGAGGCGGCAGCGUUCGGUGGCGCGAUAGUGCCAACGUUCUCAACUAUGACACGCAAAACGCGUGCUCCGUUGAAUGGAGUUUAUCAUG", "note": "[A29G C76G C93U]", "polymerase ribozyme fitness (log ratio)": "≤ -4.2"},
      {"variant": "GGAUCUAGUCGAUCUAACAAAAAAGACAAAUCUGCCACAAAGCUUGAGAGCAUCUUCGGAUGCAGAGGCGGCAGCCUUCGGUGGCGCGCUAGCGGCAACGUUCUCAACUAUGACACGCAAAACGCGUGCUCCGUUGAAUGGAGUUUAUCAUG", "note": "[U7A C8G A89C C95G]", "polymerase ribozyme fitness (log ratio)": "≤ -4.2"},
      {"variant": "GGAUCUUCUCGAUCUAACUAAAAAGACAAAUCUGCCACAAAGCUUGAGAGCAGCUUCGGAUGCAGAGGCGGCAGCCUUCGGUGGCGCGAUAGGGCCAACGUUCUCAACUAUGACACGCAAAACGCGUGCUCCGUUGAAUGGAGUUUAUCAUG", "note": "[A19U U53G C93G]", "polymerase ribozyme fitness (log ratio)": "≤ -4.2"},
      {"variant": "GGAUCUUCUCGAUCUAACAAAAAAGACAAAUCGGCCACAAAGCUUGAGAGCAUCUUCGGAUGCAGAGGCGGCGGCCUUCGGUGGCGCGAUAGCGCCAACGUUCUCAACUAUGACACGCAAAACGCGUGCUCCGUUGAAUGGAGUUUAUCAUG", "note": "[U33G A73G]", "polymerase ribozyme fitness (log ratio)": -0.513},
      {"variant": "GGAUCUUCUCGAUCUAACAAAAAAGACAAAUCUGCCACAAAGCUUGAAAGCAUCUUCGGAUGCAGAGGCGGCAGCGUUCGGUGGCGAGAAAGCGCCAACGUUCUCAACUAUGACACGCAAAACGCGUGCUCCGUUGAAUGGAGUUAAUCAUG", "note": "[G48A C76G C87A U90A U146A]", "polymerase ribozyme fitness (log ratio)": "≤ -4.2"},
      {"variant": "GGAUCUUCUCGAUCUAACAAACAAGACAAAUCUGCCACAAAGCUUGAGAGCAUCUUCCGAUGCAGAGGCUGCAGCCUUCGGUGGCGCGAUAGCGCCAACGUUCUCAACUAUGACACGCAAAACGCGUGCUCCGCUGAAUGGAGUUUAUCAUG", "note": "[A22C G58C G70U U134C]", "polymerase ribozyme fitness (log ratio)": -3.68},
      {"variant": "GGAUCUUCUCGAUCUAACAAAAAAGACAAAUCUGCCACAAAGCUUGAGAGCAUCUUCGGAUGCAGAGGCGGCAGCCUUCGGUGGCGCGAUAGCGCGAACGUUCUCAACUAUGACACGCAAAACGCGUGCUCCGUUGAAUGGAGCUUAUCAUG", "note": "[C96G U144C]", "polymerase ribozyme fitness (log ratio)": -0.123},
      {"variant": "GGAUCUUCUCGAUCUAACAAAAAAGACAAAUCUGCCACAAAGCUUGAGAGCAUCUUCGGAUGCAGAGGCGGCAGCCUUCGGUGGCGCGAUAGAGCUAACGUUCUCAACUAUGACACGCAAAACGCGUGCUCCGUUGAAUGGAGUUUAUCAUG", "note": "[C93A C96U]", "polymerase ribozyme fitness (log ratio)": -3.3},
      {"variant": "GGAUCUUCUCGAUCUAACAAAAAAGACAAAUUUGCCACAAAGCUUGAGAGCGUCUUCGGAUGCAGAGGCGGCAGCCGUCGGUGGCGCGAUAGCGCCCACGUUCUCAACUAUGACACGCAAAACGCGUGCUCCGUUGAAUGGAGAUUAUCAUG", "note": "[C32U A52G U77G A97C U144A]", "polymerase ribozyme fitness (log ratio)": "≤ -4.2"},
      {"variant": "GGAUCUUCUCGAUCUAACAAAAAAGACAAAUCUGCCACAAAGCUUGAGAGCAUCUUCGGAUGCAGAGGCGGCAGCCUUCGGUGGCGCGAUAGCGCCAACGUUCUCCACUAUGACACGCAAAACGCGUGCUCCGUUGAAUGAAGUUUAUCAUG", "note": "[A106C G141A]", "polymerase ribozyme fitness (log ratio)": -0.24}
    ]}
  ]
}
